Like-named read-outs stand apart in the source and are kept apart here.
T1: Fibrinogen (Genbank ID: M58569), S100A1 interactor (human, UniProt P02671 345-545, limits assumed)
T1 construct: range 345-~545; Prey from liver library found with S100A1; also called fibrinogen alpha subunit
T1 sequence (looked up): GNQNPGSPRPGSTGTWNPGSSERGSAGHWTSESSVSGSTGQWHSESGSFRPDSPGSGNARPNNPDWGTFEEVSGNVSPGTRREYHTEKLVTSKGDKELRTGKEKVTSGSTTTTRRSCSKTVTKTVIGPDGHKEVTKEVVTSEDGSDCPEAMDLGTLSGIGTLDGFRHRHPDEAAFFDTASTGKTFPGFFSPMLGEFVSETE

B1: S100B-1 (other, human, UniProt P04271 1-92, looked up)
chain: MSELEKAMVALIDVFHQYSGREGDKHKLKKSELKELINNELSHFLEEIKEQEVVDKVMETLDNDGDGECDFQEFMAFVAMVTTACHEFFEHE
notes: Full-length bait; also called full length S100B
B2: NAPA1 (Genbank ID: U39412) (other, human, UniProt P54920 1-295, looked up)
chain: MDNSGKEAEAMALLAEAERKVKNSQSFFSGLFGGSSKIEEACEIYARAANMFKMAKNWSAAGNAFCQAAQLHLQLQSKHDAATCFVDAGNAFKKADPQEAINCLMRAIEIYTDMGRFTIAAKHHISIAEIYETELVDIEKAIAHYEQSADYYKGEESNSSANKCLLKVAGYAALLEQYQKAIDIYEQVGTNAMDSPLLKYSAKDYFFKAALCHFCIDMLNAKLAVQKYEELFPAFSDSRECKLMKKLLEAHEEQNVDSYTESVKEYDSISRLDQWLTTMLLRIKKTIQGDEEDLR
notes: Full-length bait; Gal4-BD fusion
B3: SYN4 (Genbank ID: u07158) (other, human, UniProt Q12846 158-297, looked up)
chain: RQLKITNAGMVSDEELEQMLDSGQSEVFVSNILKDTQVTRQALNEISARHSEIQQLERSIRELHDIFTFLATEVEMQGEMINRIEKNILSSADYVERGQEHVKTALENQKKARKKKVLIAICVSITVVLLAVIIGVTVVG
notes: Prey from brain and muscle libraries; also called Syntaxin 4
B4: S100A1-1 (other, human, UniProt P23297 1-94, looked up)
chain: MGSELETAMETLINVFHAHSGKEGDKYKLSKKELKELLQTELSGFLDAQKDVDAVDKVMKELDENGDGEVDFQEYVVLVAALTVACNNFFWENS
notes: Full-length bait; also called full length S100A1
B5: S100A9 (Genbank ID: M26311) (other, human, UniProt P06702 1-114, looked up)
chain: MTCKMSQLERNIETIINTFHQYSVKLGHPDTLNQGEFKELVRKDLQNFLKKENKNEKVIEHIMEDLDTNADKQLSFEEFIMLMARLTWASHEKMHEGDEGPGHHHKPGLGEGTP
notes: range 1-114; Prey from liver and muscle libraries
B6: LZIP (Genbank ID: AF029674) (other, human, UniProt O43889 1-371, looked up)
chain: MELELDAGDQDLLAFLLEESGDLGTAPDEAVRAPLDWALPLSEVPSDWEVDDLLCSLLSPPASLNILSSSNPCLVHHDHTYSLPRETVSMDLESESCRKEGTQMTPQHMEELAEQEIARLVLTDEEKSLLEKEGLILPETLPLTKTEEQILKRVRRKIRNKRSAQESRRKKKVYVGGLESRVLKYTAQNMELQNKVQLLEEQNLSLLDQLRKLQAMVIEISNKTSSSSTCILVLLVSFCLLLVPAMYSSDTRGSLPAEHGVLSRQLRALPSEDPYQLELPALQSEVPKDSTHQWLDGSDCVLQAPGNTSCLLHYMPQAPSAEPPLEWPFPDLFSEPLCRGPILPLQANLTRKGGWLPTGSPSVILQDRYSG
notes: range 1-372; Prey from liver and muscle libraries; also called LIZP
B7: ATPase (ATP6N1) (Genbank ID: u73006) (other, human, UniProt Q93050 1-300, looked up)
chain: MGELFRSEEMTLAQLFLQSEAAYCCVSELGELGKVQFRDLNPDVNVFQRKFVNEVRRCEEMDRKLRFVEKEIRKANIPIMDTGENPEVPFPRDMIDLEANFEKIENELKEINTNQEALKRNFLELTELKFILRKTQQFFDEMADPDLLEESSSLLEPSEMGRGTPLRLGFVAGVINRERIPTFERMLWRVCRGNVFLRQAEIENPLEDPVTGDYVHKSVFIIFFQGDQLKNRVKKICEGFRASLYPCPETPQERKEMASGVNTRIDDLQMVLNQTEDHRQRVLQAAAKNIRVWFIKVRKM
notes: range 1-~300; Prey from liver library; end of the fragment approximate; also called Vacuolar-type H(+) ATPase; ATP6N17
B8: FHOS (Genbank ID: AF113615) (other, human, UniProt Q9Y613 964-1164, looked up)
chain: TPQAAREVRIMQFCHTLREFALEYRTCRERVLQQQQKQATYRERNKTRGRMITETEKFSGVAGEAPSNPSVPVAVSSGPGRGDADSHASMKSLLTSRPEDTTHNRRSRGMVQSSSPIMPTVGPSTASPEEPPGSSLPSDTSDEIMDLLVQSVTKSSPRALAARERKRSRGNRKSLRRTLKSGLGDDLVQALGLSKGPGLEV
notes: range 964-1164; Prey from muscle library
B9: Synphilin (Genbank ID: AF076929) (other, human, UniProt Q9Y6H5 335-660, looked up)
chain: PHLAADNLDKIHDENGNNLLHIAASQGHAECLQHLTSLMGEDCLNERNTEKLTPAGLAIKNGQLECVRWMVSETEAIAELSCSKDFPSLIHYAGCYGQEKILLWLLQFMQEQGISLDEVDQDGNSAVHVASQHGYLGCIQTLVEYGANVTMQNHAGEKPSQSAERQGHTLCSRYLVVVETCMSLASQVVKLTKQLKEQTVERVTLQNQLQQFLEAQKSEGKSLPSSPSSPSSPASRKSQWKSPDADDDSVAKSKPGVQEGIQVLGSLSASSRARPKAKDEDSDKILRQLLGKEISENVCTQEKLSLEFQDAQASSRNSKKIPLEKR
notes: range 335-~660; Prey from kidney library; end of the fragment approximate; also called Synphilin I; Synphilin 1
B10: STAU (Genbank ID: AF061939) (other, human, UniProt O95793 6-577, looked up)
chain: VQVQNPSAALSGSQILNKNQSLLSQPLMSIPSTTSSLPSENAGRPIQNSALPSASITSTSAAAESITPTVELNALCMKLGKKPMYKPVDPYSRMQSTYNYNMRGGAYPPRYFYPFPVPPLLYQVELSVGGQQFNGKGKTRQAAKHDAAAKALRILQNEPLPERLEVNGRESEEENLNKSEISQVFEIALKRNLPVNFEVARESGPPHMKNFVTKVSVGEFVGEGEGKSKKISKKNAAIAVLEELKKLPPLPAVERVKPRIKKKTKPIVKPQTSPEYGQGINPISRLAQIQQAKKEKEPEYTLLTERGLPRRREFVMQVKVGNHTAEGTGTNKKVAKRNAAENMLEILGFKVPQAQPTKPALKSEEKTPIKKPGDGRKVTFFEPGSGDENGTSNKEDEFRMPYLSHQQLPAGILPMVPEVAQAVGVSQGHHTKDFTRAAPNPAKATVTAMIARELLYGGTSPTAETILKNNISSGHVPHGPLTRPSEQLDYLSRVQGFQVEYKDFPKNNKNEFVSLINCSSQPPLISHGIGKDVESCHDMAALNILKLLSELDQQSTEMPRTGNGPMSVCGRC
notes: range 6-578; Prey from brain library; also called Staufen

Key:
[1] = molecular target: the molecule itself; experiment: Y2H, baits tested against each other
[2] = molecular target: T1, Fibrinogen (Genbank ID: M58569), S100A1 …; experiment: Y2H 1x1 mating, binder AD fusion, target BD fusion
[3] = molecular target: B5; experiment: Y2H 1x1 mating, binder AD fusion, target BD fusion
[4] = molecular target: T2, S100A6 (Genbank ID: M14300) (human, UniProt P06703 1-90); experiment: Y2H 1x1 mating, binder AD fusion, target BD fusion
[5] = molecular target: B6; experiment: Y2H library screen, binder bait, target prey
[6] = molecular target: B2; experiment: Y2H library screen, binder bait, target prey
[7] = molecular target: B6; experiment: Y2H 1x1 mating, binder AD fusion, target BD fusion
[8] = molecular target: the molecule itself; experiment: Y2H 1x1 mating, binder AD fusion, target BD fusion
[9] = molecular target: B9; experiment: Y2H 1x1 mating, binder AD fusion, target BD fusion
[10] = molecular target: B7; experiment: Y2H 1x1 mating, binder AD fusion, target BD fusion
[11] = molecular target: B9; experiment: Y2H 1x1 mating, binder AD fusion, target BD fusion; remark: listed apart in the source
[12] = molecular target: B8; experiment: Y2H 1x1 mating, binder AD fusion, target BD fusion
[13] = molecular target: T2, S100A6 (Genbank ID: M14300); experiment: Y2H 1x1 mating, binder AD fusion, target BD fusion; remark: listed apart in the source
[14] = molecular target: the molecule itself; experiment: Y2H 1x1 mating, binder AD fusion, target BD fusion; remark: listed apart in the source
[15] = molecular target: the molecule itself; experiment: Y2H 1x1 mating, binder AD fusion, target BD fusion; remark: listed apart in the source

## B1
[1]
  binding result: binds
[2]
  binding result: no binding
[3]
  binding result: binds
[4]
  binding result: binds

## B2
[5]
  binding result: binds

## B3
[6]
  binding result: binds
[7]
  binding result: no binding
[8]
  binding result: no binding

## B4
[9]
  binding result: no binding

## B5
[10]
  binding result: no binding
[11]
  binding result: no binding
[12]
  binding result: no binding

## B6
[8]
  binding result: no binding

## B7
[11]
  binding result: no binding
[13]
  binding result: no binding
[14]
  binding result: no binding

## B8
[10]
  binding result: no binding
[11]
  binding result: no binding
[13]
  binding result: no binding
[14]
  binding result: no binding

## B9
[13]
  binding result: no binding

## B10
[15]
  binding result: no binding
